Experimental data reported in publication PMC3961392 (PLoS Pathogens, 2014).
Residue numbers refer to the chain shown, from its start. In names and notes the source's numbering stands.

B1: APOBEC3F (enzyme, human, UniProt Q8IUX4 1-373, looked up)
chain: MKPHFRNTVERMYRDTFSYNFYNRPILSRRNTVWLCYEVKTKGPSRPRLDAKIFRGQVYSQPEHHAEMCFLSWFCGNQLPAYKCFQITWFVSWTPCPDCVAKLAEFLAEHPNVTLTISAARLYYYWERDYRRALCRLSQAGARVKIMDDEEFAYCWENFVYSEGQPFMPWYKFDDNYAFLHRTLKEILRNPMEAMYPHIFYFHFKNLRKAYGRNESWLCFTMEVVKHHSPVSWKRGVFRNQVDPETHCHAERCFLSWFCDDILSPNTNYEVTWYTSWSPCPECAGEVAEFLARHSNVNLTIFTARLYYFWDTDYQEGLRSLSQEGASVEIMGYKDFKYCWENFVYNDDEPFKPWKGLKYNFLFLDSKLQEILE
notes: also called A3F; not shown: GST, N-terminal, cleaved
B2: APOBEC3F NGM mutant (enzyme, human, UniProt Q8IUX4 1-373, looked up)
chain: B1 chain with P191G
notes: also called A3F NGM; A3F 190NGM192; not shown: GST, N-terminal, cleaved

Assays:
[1] = target: the molecule itself; test: SEC; 10-15 µg of purified enzyme (low enzyme concentration) on a 10 mL Superdex 200 column; 50 mM Tris pH 7.5, 200 mM NaCl; masses and oligomerization states from a Bio-Rad gel filtration standard curve
[2] = target: the molecule itself; test: SEC; data not shown; oligomerization state of the mutant enzymes, method as told for the A3 enzymes (Superdex 200, 50 mM Tris pH 7.5, 200 mM NaCl)

Protein | stoichiometry N [1] | stoichiometry N [2]
B1 | 4 | –
B2 | – | 4
